Sequences and labels used below:
B1: Alanine--tRNA ligase, cytoplasmic (Mus musculus), Q8BGQ7 (parent)
chain: MDATLTAREIRERFINFFRRNEHTYVHSSATIPLDDPTLLFANAGMNQFKPIFLNTIDPSHPMAKLSRAANTQKCIRAGGKHNDLDDVGKDVYHHTFFEMLGSWSFGDYFKELACKMALELLTQEFGIPVERLYVTYFGGDEAAGLEPDLECRQIWQNLGLDEARILPGNMKDNFWEMGDTGPCGPCSEIHYDRIGGRDAAHLVNQDDPNVLEIWNLVFIQYNRESDGVLKPLPKKSIDTGMGLERLVSVLQNKMSNYDTDLFMPYFEAIQKGTGARPYTGKVGAEDADGIDMAYRVLADHARTITVALADGGRPDNTGRGYVLRRILRRAVRYSHEKLNASRGFFATLVDVVVQSLGDAFPELKKDPEMVKDIINEEEVQFLKTLSRGRRILDRKIQSLGDCKTIPGDTAWLLYDTYGFPVDLTGLIAEEKGLVVDMNGFEEERRLAQLKSQGKGAGDEDLIMLDIYAIEELRAKGLEATDDSPKYNYQSDSSGSYVFECTVATVLALRREKMFVDEVVTGQECGVVLDKTCFYAEQGGQIYDEGYLVKVDDSSEDKTEFTVKNAQVRGGYVLHIGTIYGNLKVGDQVRLFIDEPRRRPVMSNHTATHILNFALRSVLGEADQKGSLVAPDRLRFDFTAKGAMSTQQIKKAEEIVNGMIEAAKPVYTQDCPLAAAKAIQGLRAVFDETYPDPVRVVSIGVPVSELLDDPCGPAGSLTSVEFCGGTHLRNSSHAGAFVIVTEEAIAKGIRRIVAVTGAEAQKALRKSETLKKSLSAMEAKVKAQTAPNKDVQREIADLGEALATAVIPQWQKDEQRETLKSLKKVMDDLDRASKADVQKRVLEKTKQLIDSNPNQPLVILEMESGASAKALNEALKLFKTHSPQTSAMLFTVDNEAGKITCLCQVPQNAANRGLKASEWVQQVSGLMDGKGGGKDMSAQATGKNVGCLQEALQLATSFAQLRLGDVKN
B2: Ankyrin repeat domain-containing protein 16 (Mus musculus), A2AS55-1 (parent)
chain: MALPGDPRRLCRLVQEGRLRDLQEELAVARGCRGPAGDTLLHCAARHGRQDILAYLVEAWSMDIEATNRDYKRPLHEAASMGHRDCVRYLLGRGAVVDSLKKADWTPLMMACTRKNLDVIQDLVEHGANPLLKNKDGWNSFHIASREGHPVILRYLLTVCPDAWKTESNIRRTPLHTAAMHGCLEAVQVLLERCHYEPDCRDNCGVTPFMDAIQCGHVSIAKLLLEQHKACSSAADSMGAQALHRAAVTGQDEAIRFLVCGLGIDVDVRAKSSQLTALHYAAKEGQTNTVQTLLSLGADINSTDERNRSVLHLACAGQHVACTRLLLQSGLKDSEDLTGTLAQQLTRSVDILQDFDHDVKS

Variants of B1 are the subject of the first test. As to conditions: with Ankrd16, A2AS55-1.
Consider A734E, for which the “effect of a mutation on the interaction” value is recorded as “with no effect”.

Variants of B2 are the subject of the next test. As to conditions: with syac_mouse Aars1, Q8BGQ7.
Turning to K102R;K135R;K165R, the “effect of a mutation on the interaction” value is listed as “disrupting interaction strength”.

These data come from IntAct's records for PubMed 29769718.
